From the nanobody polyreactivity screen of Harvey et al. (2022) come the findings set out here.

The nature of the data set: yeast display, Sf9 membrane polyspecificity reagent, FACS + sequencing; frameworks hold sequencing errors. An outline of the steps: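 Genes from sorted yeast were amplified by colony PCR, read by MiSeq 2 × 250 sequencing and filtered on CDR length. These cells carried a synthetic nanobody library in Saccharomyces cerevisiae BJ5465 and were sorted by FACS into low and high (top ~1%) gates on anti-HA and streptavidin fluorescence. Polyreactivity is labelled according to the gate of origin.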
For “QVQLVESGGGLVQAGGSLRLSCAASGLIFLYNAMGWYRQAPGKERELVAAISSGGGRTYYADSVKGRFTISRDNAKNTVYLQMNSLKPEDTAVYYCNVASYAKKRWTMDYWGQGTQVTVSS”, the “polyreactivity (PSR sort gate)” value was “high polyreactivity”.
In the case of “QVQLVESGGGLVQAGGSLRLSCAASGLIFLYYVMAWYRQAPGKERELVAGISRSGGRTNYADSVKGRFTISRDNAKNTVYLQMNSLKPEDTAVYYCAALLSIGQPKPTWYYYWGQGTQVTVSS”, the “polyreactivity (PSR sort gate)” value is “high polyreactivity”.
The result for “QVQLVESGGGLVQAGGSLRLSCAASGLIFNKYAMGWYRQAPGKERELVATIRRDGSTNYADSVKGRFTISRDNAKITVYLQLNILKPEDTAVYYCAADSYYTRDDYWGQGTQVTVSS” reads “high polyreactivity”; that for “QVQLVESGGGLVQAGGSLRLSCAASGLIFNTYAMGWYRQARGKERELVAAITDGGGTNYADSVKGRFTISRDNAKNTVYLQMNSLKPEDTAVYYCAARLASWPLTYDFQWYEYWGQGTQVTVSS”, “low polyreactivity”; that for “QVQLVESGGGLVQAGGSLRLSCAASGLIFPGYAMGWYRQAPGKERELVAAIDWSGGSTYYADSVKGRFTISRDYAKNTVYLQMNSLKPEDTAVYDCNADGYLSYAFDYWGQGTQVTVSS”, “low polyreactivity”.
The result for “QVQLVESGGGLVQAGGSLRLSCAASGLIFPRYAMGWYRQAPGKETELVAAISRSGGNTYYADSVKGRFTISRDNAKNTVYLQINRLKPEDTAVYYCAAYLKVRSPRDGYDYWGQGTQVSVSS” reads “high polyreactivity”; that for “QVQLVESGGGLVQAGGSLRLSCAASGLIFPSYAMGWYRQAPGKERELVAGINSGGSTNYADSVKGRFTISRDNAKNTVYLQMNSLKPEDTAVYYCAKDNNYYWYVSPRDYWGQGTQVTVSS”, “low polyreactivity”; that for “QVQLVESGGGLVQAGGSLRLSCAASGLIFPSYTMGSYRQAPGKERELVAAITFSGDSTNYADSVKGRFTISRDNAKNTVYLQMNSLKPEDTAVYYCAAETITYGFDGDYWGQGTQVTVSS”, “low polyreactivity”.
On to “QVQLVESGGGLVQAGGSLRLSCAASGLIFQYYAMGWYRPAPGKERELVAAISSDGNTYYADSVKGRFTISRDNAKNTVYLQMNSLKPEDTAVYYCAADWYIAYSEYGYWGQGTKVTVSS”, for which the “polyreactivity (PSR sort gate)” value is on record as “low polyreactivity”.
The result for “QVQLVESGGGLVQAGGSLRLSCAASGLIFQYYAMGWYRQAPGKERELVAGITSGANTNYADSVKGRFTISRDNAKNTVYLQMNSLKPEDTAVYYCATYVSSPYSDIWFKDFDYWGQGTQVTVSS” reads “low polyreactivity”; that for “QVQLVESGGGLVQAGGSLRLSCAASGLIFRFNAMGWYRQAPGKERELVAAITRAGSTYYADSVKGRFTISRDNAKNTVYLQMNSLKPEDTAVYYCAAGQYRLPQRGYGYWGQGTQVTVSS”, “high polyreactivity”; that for “QVQLVESGGGLVQAGGSLRLSCAASGLIFRGYAMGWYRQAPGKERELVAAISGSGVTTYYADSVKGRFTISRDYAKNSVYLQMNCLKPEDTAVYYCAASTRYEGNYWGQGTQVTVSS”, “high polyreactivity”.
To “QVQLVESGGGLVQAGGSLRLSCAASGLIFRHYVMGWYRQAPGKERELVAAITSRGGTTYYADSVKGRFTISRDNAKNTVYLQMNSLKPEDTAVYYCNVVQNSRHGYTSYYWGQGTQVTVSS” belongs “high polyreactivity”; to “QVQLVESGGGLVQAGGSLRLSCAASGLIFRPYAMGWYRQAPGQERELVAAITSGGSTDYADSVKGRFTISRDNAKNTVYLQMNSLKPEDTAVYYCNADIYPPDGYPWQGDYDYWGQGTQVTVSS”, “low polyreactivity”.
To “QVQLVESGGGLVQAGGSLRLSCAASGLIFRPYTMGWYRQAPGKERELVATISGSGASTNYADSVNGRFTISRDNAKNTVYLQMNSLKPEDTAVYYCKGRCYSRMYYWGQGTQVTVSS” belongs “high polyreactivity”.
“QVQLVESGGGLVQAGGSLRLSCAASGLIFRRNAMGWYRQAPGKERELVAAISWSGGSTYYADSVKGRFTISRDNAKNTVYLQMNSLKPEDTAVYYCNRGGFSRYYYWGHGTQVTVSS”: the “polyreactivity (PSR sort gate)” value is given as “low polyreactivity”.
Consider “QVQLVESGGGLVQAGGSLRLSCAASGLIFRRYAMGWYRQAPGKERELVAVISSGGRTYYADSVKGRFTISRDNAKNTVFLQMNSLKPEDTAVYYCAARTRSYWGTYGSYHYDYWGQGTQVTVSS”, for which the “polyreactivity (PSR sort gate)” value is listed as “high polyreactivity”.
The result for “QVQLVESGGGLVQAGGSLRLSCAASGLIFRRYVMGWYRQAPGKERELVAAITSRGTRTYYADSVKGRFTISRDNAKNTVYLQMNSLKPEDTAVYYCNAQIYTYRTGRGYSRMDYWGQGTQVTVSS” reads “high polyreactivity”; that for “QVQLVESGGGLVQAGGSLRLSCAASGLIFRSNAMGWYRQAPGKERELVAAISGSGGRTYYADSVKGRFTISRDNANNTVYLQMNSLKPEDTAVYYCAGRWSYRQNGYWGQGTQVTVSS”, “high polyreactivity”.
To “QVQLVESGGGLVQAGGSLRLSCAASGLIFRYSGMGWYRQATGKERELVAAIRWSAGSTYYADSVKGRFTISRDNAKNTVYLQMNSLKPEDTAVYYCAARAPVAGYKYRYDYWGQGTQVTVSS” belongs “high polyreactivity”; to “QVQLVESGGGLVQAGGSLRLSCAASGLIFRYYAMGWYRQAPGKERELVAAISLRGGSTYYADSVKGRFTISRDNAKNTVYLQMNSLKPEDTAVYYCAAQWAAFSVANQYGYWGQGTQVTVSS”, “high polyreactivity”; to “QVQLVESGGGLVQAGGSLRLSCAASGLIFRYYAMGWYSKAPGKERELVAVINYSGGRTYYADSVKGRFTISRDNAKNTVYLQMNSLKPEDTAVYYCAASFASKYEYWGQGTQVTVSS”, “high polyreactivity”.
Regarding “QVQLVESGGGLVQAGGSLRLSCAASGLIFRYYAMGWYSQAPGKEREFVAAISGPGASTYYADSVKGRFTISRDNAKNTVYLQMNSLKPEDTAVYYCNTLLTYGYDYWGQGTQVTVSS”, the “polyreactivity (PSR sort gate)” value was “high polyreactivity”.
In the case of “QVQLVESGGGLVQAGGSLRLSCAASGLIFSGYAMGWYRQAPGKERELVAAISTRGGSTFYADSVKGRFTISRDNAKNTVYLQMNSLKPEDTAVYYCAADGAGGYYYWGQGTQVTVSS”, the “polyreactivity (PSR sort gate)” value was “high polyreactivity”.
Consider “QVQLVESGGGLVQAGGSLRLSCAASGLIFSKNVMGWYRQAPGKERELVAAISQRGGSTYYADSVKGRFTISRDNAKNTVYLQMNSLKPEDTAVYYCAADNTVSHEDYWGQGTQVTVSS”, for which the “polyreactivity (PSR sort gate)” value is listed as “high polyreactivity”.
With “QVQLVESGGGLVQAGGSLRLSCAASGLIFSPYAMGWYRQAPGKERELVAAITWSGGSTYYADSVKGRFTISRDNAKNTVYLQMNSLKPEDTAVYYCNAVTTRLALYDYWGQGTQVTVSS”, the “polyreactivity (PSR sort gate)” value was “high polyreactivity”.
To “QVQLVESGGGLVQAGGSLRLSCAASGLIFSQNAMGWYRQAPGKERELVARITLSGTSTYYADSVKGRFTISRDNAKNTVYLQMNSLKPEDTAVYYCNTRSYSYYVPYRYDYWGQGTQVTVSS” belongs “high polyreactivity”; to “QVQLVESGGGLVQAGGSLRLSCAASGLIFSQNAMGWYRQAPGKERELVARITWSGTSTYYADSVKGRFTISRDNAKNTVYLQMNSLKPEDTAVYYCAADRPRGRETVDYWGQGTQVTVSS”, “high polyreactivity”.
Consider “QVQLVESGGGLVQAGGSLRLSCAASGLIFSRNAMGWYRQAPGKERELVAAISGGGGSTYYADSVKGRFTISRDNAKNTVYLQMNSLKPEDTAVYYCAAKGYWWRTPWIATYDYWGQGTQVTVSS”, for which the “polyreactivity (PSR sort gate)” value is “high polyreactivity”.
With “QVQLVESGGGLVQAGGSLRLSCAASGLIFSRYTMGWYRQPPGKERELVAAISSDGSTYYADSVKGRFTISRDNAKNTVYLQMNSLKPEDTAVYYCAARYWVGGRDRYDSWGQGTQVTVSS”, the “polyreactivity (PSR sort gate)” value is “high polyreactivity”.
Take “QVQLVESGGGLVQAGGSLRLSCAASGLIFSRYVMGWYRQAPGKERELVAAISRSGGSTYYADSVKGRFTISRDIAKNTVYLQMNSLKPEDTAVYYCNAGRRTGRYGYWGQGTQVTVSS”: the “polyreactivity (PSR sort gate)” value was “high polyreactivity”.
Turning to “QVQLVESGGGLVQAGGSLRLSCAASGLIFSTNDMGWYRQAPGKERELVAAITSDVSTYYADSVKGRFTISRDNAKNTVYLQMNSLEPEDTAVYYCAKDDSGYINWRYDYWGQGTQVTVSS”, the “polyreactivity (PSR sort gate)” value was “low polyreactivity”.
To “QVQLVESGGGLVQAGGSLRLSCAASGLIFSTYYMGWYRQAPRKERELVAAISTGGSTYCADSVKGRFTISRDNAKNTVYLQMNSLKPEDTAVYYCAAGYTYHSWPLYYWDYNYWGQGTQVTVSS” belongs “low polyreactivity”; to “QVQLVESGGGLVQAGGSLRLSCAASGLIFSYNDMGWYRQAPGKERELVASISNGGSTNYADSVKGRFTISRDNAKNTVYLQMNSLKPEDTAVYYCAAEGALGEVYWWNVRRYYWGQGTQVTVSS”, “low polyreactivity”.
To “QVQLVESGGGLVQAGGSLRLSCAASGLIFTAYAMGWYRQAPGKERELVAAIDWRGGSTSYADSVKGRFTISRDNAKNTVYLQMNSLKPEDTAVYYCAADYYSKYVRFGYWGQGTQVTVSS” belongs “high polyreactivity”; to “QVQLVESGGGLVQAGGSLRLSCAASGLIFTDNTRGWYRQAPGKEREFVADISSSGGITYYADSVKGRFTFSRDNAKNTVYLQMNSLKPEDTAVYYCNAERGYDYLDGYPFFIYDYWGQGTQVTVSS”, “low polyreactivity”; to “QVQLVESGGGLVQAGGSLRLSCAASGLIFTTNAMGWYRQAPGKERELVAAISTSTGRTYYADSVKGRFTISRDTAKNTVYFQMNSLKPEDTAVYYCAADGFLSYYGFWRYEYWGQGTQVTVSS”, “high polyreactivity”.
To “QVQLVESGGGLVQAGGSLRLSCAASGLIFTYYAMGWYRQAPGKERELVAAIRVNGGSTYYADSVKGRFTISRDNAKNTVYFQMNSLKPEDTAVFYCAADYYRLRAASYLIRLNYWGQGTQVTVSS” belongs “high polyreactivity”; to “QVQLVESGGGLVQAGGSLRLSCAASGLIFTYYAMGWYRQAPGKERELVAAITSGGRTNYADSVKGRFTISRDNAKNTVYLQMNSLKPEDTAVYYCAATSSWRANYRTWVYRYDYWGQGTQVTVSS”, “high polyreactivity”; to “QVQLVESGGGLVQAGGSLRLSCAASGLIFTYYDIGWYRQEPGKERELVASISWDGGRTYYADSVKGRFTIARDNAKKTVYLQMNSLKPEDTAVYYCAKRLGGSPIQARGDFWGQGTQVTVSS”, “low polyreactivity”.
